In patent publication US20140072613A1, “Compositions and Methods for Treating Cutaneous Scarring” (priority 2012, published 2014) one finds % activity, 100 µM and inhibition of kinase activity data, which are given here for one substance.

Targets include MLK1(h) (human) (UniProt P80192); Ron(h) (human) (UniProt Q04912); TrkB(h) (human) (UniProt Q16620); Fer(h) (human) (UniProt P16591); CHK2(h) (human) (UniProt O96017); Rsk2(h) (human) (UniProt P51812); PAK4(h) (human) (UniProt O96013); CK2(h) (human); cKit(V654A)(h) (human) (UniProt P10721).
Holding throughout (assay): cell-based or functional assay
The target of a further test is T1, TSSK1(h) (human) (UniProt Q9BXA7).
T1 sequence (looked up): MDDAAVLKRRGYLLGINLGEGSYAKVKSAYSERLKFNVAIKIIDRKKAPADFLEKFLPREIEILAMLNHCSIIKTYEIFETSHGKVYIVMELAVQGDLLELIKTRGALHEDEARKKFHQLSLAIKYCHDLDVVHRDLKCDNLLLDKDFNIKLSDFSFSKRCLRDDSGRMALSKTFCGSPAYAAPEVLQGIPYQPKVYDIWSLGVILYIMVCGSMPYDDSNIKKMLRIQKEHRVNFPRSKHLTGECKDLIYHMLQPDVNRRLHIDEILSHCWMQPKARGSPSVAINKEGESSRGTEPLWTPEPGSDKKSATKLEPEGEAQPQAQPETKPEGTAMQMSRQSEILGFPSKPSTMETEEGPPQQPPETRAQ

The target in a further test is T2, NEK2(h) (human) (UniProt P51955).
T2 sequence (looked up): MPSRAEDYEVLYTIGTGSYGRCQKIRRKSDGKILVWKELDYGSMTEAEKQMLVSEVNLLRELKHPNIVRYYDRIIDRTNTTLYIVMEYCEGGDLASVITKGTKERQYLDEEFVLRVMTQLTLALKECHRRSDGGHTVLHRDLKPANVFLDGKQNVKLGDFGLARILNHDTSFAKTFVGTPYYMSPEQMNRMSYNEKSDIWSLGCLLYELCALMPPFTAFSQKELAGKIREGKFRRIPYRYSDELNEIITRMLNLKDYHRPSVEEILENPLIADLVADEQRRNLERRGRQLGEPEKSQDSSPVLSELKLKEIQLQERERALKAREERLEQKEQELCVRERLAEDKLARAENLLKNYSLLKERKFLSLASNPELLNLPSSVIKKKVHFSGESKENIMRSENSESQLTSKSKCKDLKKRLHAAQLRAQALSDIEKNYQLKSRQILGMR

In another test the target is T3, PKCζ(h) (human) (UniProt Q05513).
T3 sequence (looked up): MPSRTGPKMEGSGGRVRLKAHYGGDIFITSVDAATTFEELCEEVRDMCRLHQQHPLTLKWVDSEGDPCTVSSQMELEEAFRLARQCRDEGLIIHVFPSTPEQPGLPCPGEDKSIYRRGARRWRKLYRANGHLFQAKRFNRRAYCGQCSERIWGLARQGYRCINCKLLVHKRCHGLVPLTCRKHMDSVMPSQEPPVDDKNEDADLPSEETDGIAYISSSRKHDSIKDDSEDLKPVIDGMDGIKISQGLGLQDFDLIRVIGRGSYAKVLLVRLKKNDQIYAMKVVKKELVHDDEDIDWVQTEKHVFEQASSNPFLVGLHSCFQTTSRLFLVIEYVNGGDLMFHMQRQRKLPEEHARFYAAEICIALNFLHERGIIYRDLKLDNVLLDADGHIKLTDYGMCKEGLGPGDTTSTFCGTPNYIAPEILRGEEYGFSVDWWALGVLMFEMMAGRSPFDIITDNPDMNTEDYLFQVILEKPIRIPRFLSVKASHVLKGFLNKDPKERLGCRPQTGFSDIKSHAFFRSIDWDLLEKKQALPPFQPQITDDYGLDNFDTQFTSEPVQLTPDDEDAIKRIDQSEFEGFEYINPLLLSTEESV

For the next test, the target named is T4, ULK2(h) (human) (UniProt Q8IYT8).
T4 sequence (looked up): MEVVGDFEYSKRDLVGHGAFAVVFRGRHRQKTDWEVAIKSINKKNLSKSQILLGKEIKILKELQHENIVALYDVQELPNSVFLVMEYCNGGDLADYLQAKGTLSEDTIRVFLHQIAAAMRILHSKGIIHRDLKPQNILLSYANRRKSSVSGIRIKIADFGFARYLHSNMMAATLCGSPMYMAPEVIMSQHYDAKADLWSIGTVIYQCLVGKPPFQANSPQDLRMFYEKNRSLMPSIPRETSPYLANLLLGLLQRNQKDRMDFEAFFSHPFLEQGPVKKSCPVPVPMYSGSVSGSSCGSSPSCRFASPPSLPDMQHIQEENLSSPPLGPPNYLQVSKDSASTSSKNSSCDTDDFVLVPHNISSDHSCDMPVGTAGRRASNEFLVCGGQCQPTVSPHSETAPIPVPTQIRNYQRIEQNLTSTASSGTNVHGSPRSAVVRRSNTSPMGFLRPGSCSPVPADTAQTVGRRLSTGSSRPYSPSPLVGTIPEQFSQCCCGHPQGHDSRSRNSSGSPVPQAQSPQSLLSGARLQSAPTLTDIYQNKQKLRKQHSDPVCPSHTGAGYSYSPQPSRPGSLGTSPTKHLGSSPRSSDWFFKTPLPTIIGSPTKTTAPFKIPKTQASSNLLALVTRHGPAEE

The target of a further test is T5, TAO3(h) (human) (UniProt Q9H2K8).
T5 sequence (looked up): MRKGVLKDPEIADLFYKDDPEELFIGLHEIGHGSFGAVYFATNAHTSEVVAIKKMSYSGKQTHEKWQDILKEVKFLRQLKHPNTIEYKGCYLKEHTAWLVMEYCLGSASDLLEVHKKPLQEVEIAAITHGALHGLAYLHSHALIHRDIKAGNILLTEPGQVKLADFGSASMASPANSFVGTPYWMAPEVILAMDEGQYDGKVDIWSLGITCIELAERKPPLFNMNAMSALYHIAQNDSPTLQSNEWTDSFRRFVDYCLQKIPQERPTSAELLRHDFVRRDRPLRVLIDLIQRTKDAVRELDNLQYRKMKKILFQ

TrkB(h) (human), sequence (Q16620 455-822 limits assumed): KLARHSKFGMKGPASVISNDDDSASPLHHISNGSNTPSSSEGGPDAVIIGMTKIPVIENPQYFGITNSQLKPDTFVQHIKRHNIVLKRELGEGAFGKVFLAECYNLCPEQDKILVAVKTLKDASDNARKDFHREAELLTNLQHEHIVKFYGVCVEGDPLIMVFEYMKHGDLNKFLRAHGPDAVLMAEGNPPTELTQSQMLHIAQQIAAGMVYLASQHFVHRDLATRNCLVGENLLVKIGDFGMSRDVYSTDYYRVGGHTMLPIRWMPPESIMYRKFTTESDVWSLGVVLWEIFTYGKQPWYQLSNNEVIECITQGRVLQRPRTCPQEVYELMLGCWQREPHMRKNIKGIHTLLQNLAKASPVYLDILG
Ron(h) (human), sequence (Q04912 983-1400 limits assumed): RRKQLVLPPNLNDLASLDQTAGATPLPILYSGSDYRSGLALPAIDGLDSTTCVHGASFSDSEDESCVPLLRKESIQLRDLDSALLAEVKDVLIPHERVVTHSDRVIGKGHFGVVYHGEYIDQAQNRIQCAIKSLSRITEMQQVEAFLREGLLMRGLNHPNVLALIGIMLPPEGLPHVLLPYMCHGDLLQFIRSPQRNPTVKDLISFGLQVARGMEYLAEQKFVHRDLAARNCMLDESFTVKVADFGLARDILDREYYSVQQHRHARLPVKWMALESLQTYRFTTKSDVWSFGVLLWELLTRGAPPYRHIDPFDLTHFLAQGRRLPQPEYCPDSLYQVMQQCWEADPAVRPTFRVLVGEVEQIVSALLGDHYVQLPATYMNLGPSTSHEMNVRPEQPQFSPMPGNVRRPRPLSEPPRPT
Fer(h) (human), sequence (P16591 541-822 limits assumed): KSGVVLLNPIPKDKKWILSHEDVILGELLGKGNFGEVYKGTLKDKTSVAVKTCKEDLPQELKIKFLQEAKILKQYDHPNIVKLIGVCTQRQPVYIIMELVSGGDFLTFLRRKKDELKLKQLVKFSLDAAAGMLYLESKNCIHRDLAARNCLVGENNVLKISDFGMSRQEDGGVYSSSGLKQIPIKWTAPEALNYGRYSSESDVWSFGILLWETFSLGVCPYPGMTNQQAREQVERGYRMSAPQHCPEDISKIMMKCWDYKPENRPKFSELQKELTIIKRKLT
CHK2(h) (human), sequence (O96017 5-543 limits assumed): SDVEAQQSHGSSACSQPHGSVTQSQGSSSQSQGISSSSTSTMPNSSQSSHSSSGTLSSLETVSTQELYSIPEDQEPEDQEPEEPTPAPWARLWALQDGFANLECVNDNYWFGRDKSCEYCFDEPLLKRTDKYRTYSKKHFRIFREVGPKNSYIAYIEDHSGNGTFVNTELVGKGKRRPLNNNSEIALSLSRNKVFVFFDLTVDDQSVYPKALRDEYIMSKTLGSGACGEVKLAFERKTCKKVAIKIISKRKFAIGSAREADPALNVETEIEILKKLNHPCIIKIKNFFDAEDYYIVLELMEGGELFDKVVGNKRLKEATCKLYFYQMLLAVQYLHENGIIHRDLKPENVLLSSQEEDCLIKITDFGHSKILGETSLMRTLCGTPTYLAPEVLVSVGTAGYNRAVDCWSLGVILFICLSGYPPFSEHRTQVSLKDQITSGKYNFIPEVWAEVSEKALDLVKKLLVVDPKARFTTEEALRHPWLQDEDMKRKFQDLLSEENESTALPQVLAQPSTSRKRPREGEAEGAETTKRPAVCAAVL
PAK4(h) (human), sequence (O96013 whole entry): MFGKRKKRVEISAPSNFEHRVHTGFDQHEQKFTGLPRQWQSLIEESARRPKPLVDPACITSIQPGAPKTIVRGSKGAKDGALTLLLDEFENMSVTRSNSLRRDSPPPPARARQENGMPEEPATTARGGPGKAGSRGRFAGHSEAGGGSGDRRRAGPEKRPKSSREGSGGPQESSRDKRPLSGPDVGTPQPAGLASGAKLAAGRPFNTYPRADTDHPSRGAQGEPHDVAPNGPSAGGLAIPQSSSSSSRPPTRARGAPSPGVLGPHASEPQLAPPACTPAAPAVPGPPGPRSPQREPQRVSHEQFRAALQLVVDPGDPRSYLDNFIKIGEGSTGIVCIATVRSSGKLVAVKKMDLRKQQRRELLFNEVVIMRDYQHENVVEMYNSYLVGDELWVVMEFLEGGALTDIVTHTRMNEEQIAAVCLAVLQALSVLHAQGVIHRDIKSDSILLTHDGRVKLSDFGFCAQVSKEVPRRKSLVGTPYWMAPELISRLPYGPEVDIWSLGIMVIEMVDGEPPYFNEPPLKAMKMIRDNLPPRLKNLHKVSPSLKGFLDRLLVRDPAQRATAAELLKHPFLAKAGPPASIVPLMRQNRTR
Rsk2(h) (human), sequence (P51812 whole entry): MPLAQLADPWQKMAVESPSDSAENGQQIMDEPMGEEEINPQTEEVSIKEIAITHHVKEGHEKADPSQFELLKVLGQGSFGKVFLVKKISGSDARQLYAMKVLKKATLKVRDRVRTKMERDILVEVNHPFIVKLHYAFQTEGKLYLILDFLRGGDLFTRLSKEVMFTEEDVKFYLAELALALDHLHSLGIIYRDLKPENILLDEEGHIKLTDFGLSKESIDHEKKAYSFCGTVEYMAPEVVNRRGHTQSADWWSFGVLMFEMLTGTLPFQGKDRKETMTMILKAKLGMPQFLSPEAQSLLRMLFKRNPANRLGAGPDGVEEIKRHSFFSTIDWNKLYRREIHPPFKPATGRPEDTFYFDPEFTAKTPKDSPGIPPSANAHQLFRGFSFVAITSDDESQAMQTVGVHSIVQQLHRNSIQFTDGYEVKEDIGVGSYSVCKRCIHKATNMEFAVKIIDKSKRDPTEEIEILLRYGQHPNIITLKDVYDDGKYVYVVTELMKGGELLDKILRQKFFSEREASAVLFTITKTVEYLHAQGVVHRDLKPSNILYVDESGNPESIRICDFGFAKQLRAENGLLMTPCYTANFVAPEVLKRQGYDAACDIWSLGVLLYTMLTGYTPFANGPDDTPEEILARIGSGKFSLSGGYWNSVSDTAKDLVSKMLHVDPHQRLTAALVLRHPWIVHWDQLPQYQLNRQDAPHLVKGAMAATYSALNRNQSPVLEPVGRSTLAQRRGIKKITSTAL
MLK1(h) (human), sequence (P80192 132-413 limits assumed): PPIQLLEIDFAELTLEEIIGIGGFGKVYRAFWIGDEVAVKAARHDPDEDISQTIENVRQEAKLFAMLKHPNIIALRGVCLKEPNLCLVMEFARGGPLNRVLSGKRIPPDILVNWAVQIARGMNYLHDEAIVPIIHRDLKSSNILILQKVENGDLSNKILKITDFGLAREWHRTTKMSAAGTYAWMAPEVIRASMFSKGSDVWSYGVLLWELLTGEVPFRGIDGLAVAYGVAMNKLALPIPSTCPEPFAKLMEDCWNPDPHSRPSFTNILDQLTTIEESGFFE
cKit(V654A)(h) (human), sequence (P10721 544-976 V654A): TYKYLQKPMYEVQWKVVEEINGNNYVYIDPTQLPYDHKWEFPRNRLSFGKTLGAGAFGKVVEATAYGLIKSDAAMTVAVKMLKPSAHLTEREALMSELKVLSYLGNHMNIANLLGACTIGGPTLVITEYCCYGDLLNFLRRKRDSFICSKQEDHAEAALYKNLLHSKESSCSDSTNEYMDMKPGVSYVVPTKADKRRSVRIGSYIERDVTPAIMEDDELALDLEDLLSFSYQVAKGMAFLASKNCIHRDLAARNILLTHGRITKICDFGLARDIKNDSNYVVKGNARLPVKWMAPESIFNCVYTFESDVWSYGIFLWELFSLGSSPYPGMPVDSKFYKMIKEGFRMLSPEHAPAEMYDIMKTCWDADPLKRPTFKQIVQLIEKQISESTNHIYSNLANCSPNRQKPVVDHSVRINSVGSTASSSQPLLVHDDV

For the substance MMI-0500 (peptide), the % activity, 100 µM was found to be 43% with MLK1(h) (human); 46% with TSSK1(h) (human); 46% in the test with Ron(h) (human); 0% in the test with NEK2(h) (human); 7% with PKCζ(h) (human); 12% in the test with TrkB(h) (human). Besides, the % activity, 100 µM in the test with Fer(h) (human) is 196%; in the test with CHK2(h) (human) it was 13%; with ULK2(h) (human), 124%; with Rsk2(h) (human), 14%; in the test with TAO3(h) (human), 12%; in the test with PAK4(h) (human), 86%. In addition, the results for the % activity, 100 µM with CK2(h) (human) and in the test with cKit(V654A)(h) (human) were 93% and 223%, respectively. The inhibition of kinase activity at 100 µM with TrkB(h) (human) is above 65%.
